Data on 84 variants can be found in the RNAGym collection of RNA variant scans (doi:10.1093/molbev/msab373).

First the molecules themselves.
B1: Azoarcus group I ribozyme (parent)
chain: GUGCCUUGCGCCGGGAAACCACGCAAGGGAUGGUGUCAAAUUCGGCGAAACCUAAGCGCCCGCCCGGGCGUAUGGCAACGCCGAGCCAAGCUUCGGCGCCUGCGCCGAUGAAGGUGUAGAGACUAGACGGCACCCACCUAAGGCAAACGCUAUGGUGAAGGCAUAGUCCAGGGAGUGGCGAAAGUCACACAAACCGG

Variants of B1 are the subject of this data set. The data set is described as follows: reverse-splicing fitness (ratio to wild type); higher = more active; in vitro selection; Mg2+ level not given. The method in brief:
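An in vitro group I ribozyme library with randomized positions was T7-transcribed and gel-purified. In triplicate, 10 pmol RNA in EPPS pH 7.5 was reacted with 50 pmoles of a 30-nt RNA substrate for 1 h at 37 °C across several added MgCl2 levels (1–48 mM), then stopped with EDTA. Products were reverse transcribed from a substrate-complementary primer, PCR-amplified and sequenced (HiSeq 4000). Fitness is a variant's read proportion after selection over that before, normalised to wild type.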
As for A111C A120G A145C C150G C169G U176C, the reverse-splicing fitness was 0.00609. As for A111C A120G A145C C150G C169G U176A, the figure is 0.00954; as for A111C A120G A145G C150A C169A U176A, 0.0174. As for A111C A120G A145G C150A C169A U176G, the figure is 0.0058; as for A111C A120G A145G C150A C169A U176C, 0.022; as for A111C A120G A145C C169G U176A, 0.0348.

As for A111C A120G A145C C169G U176G, the reverse-splicing fitness was 0.00459.

On to A111C A120G A145C C169G U176C, for which the reverse-splicing fitness worked out at 0.0399. As for A111C A120G A145U C150A, the reverse-splicing fitness came to 0.0185.

For the variant A111C A120G A145G C150G C169U, the reverse-splicing fitness was 0.0264. The figure for A111C A120G A145G C150G C169G is 0.0248; for A111C A120G A145G C150G C169A it is 0.0166; for A111C A120C C169G U176G it is 0.00524.

On to A111C A120C C169G U176A, for which the reverse-splicing fitness is 0.0157.

As for A111C A120C C169G U176C, the reverse-splicing fitness was 0.021. The figure for A111C A120C C150U C169U is 0.113. With A111C A120C C150U C169A, the reverse-splicing fitness came out at 0.0123. The figure for A111C A120C C150U C169G is 0.00843. The figure for A111C A120G A145C C150A C169G U176G is 0.00527. As for A111C A120G A145C C150A C169G U176C, the reverse-splicing fitness turned out to be 0.0161.

As for A111C A120G A145C C150A C169G U176A, the reverse-splicing fitness was 0.024. As for A111C A120G A145G C169A U176C, the reverse-splicing fitness stood at 0.0401. As for A111C A120G A145G C169A U176A, the figure is 0.0264; as for A111C A120G A145G C169A U176G, 0.00458; as for A111C A120G A145G C150U C169A U176A, 0.0192. A111C A120G A145G C150U C169A U176C: the reverse-splicing fitness amounted to 0.0222. The figure for A111C A120G A145G C150U C169A U176G is 0.00548; for A111C A120G A145C C150G C169U it is 0.0248; for A111C A120G A145C C150G C169A it is 0.015. As for A111C A120G A145C C150G C169G, the figure is 0.0238; as for A111C A120C C169A U176G, 0.00631; as for A111C A120C C169A U176A, 0.0152. For the variant A111C A120C C169A U176C, the reverse-splicing fitness amounted to 0.0161.

For the variant A111C A120C U176C, the reverse-splicing fitness was 0.204. With A111C A120C U176G, the reverse-splicing fitness is 0.0393. Regarding A111C A120C U176A, the reverse-splicing fitness was 0.186.

Consider A111C A120G A145C C150A C169U, for which the reverse-splicing fitness stood at 0.0139.

As for A111C A120G A145C C150A C169G, the reverse-splicing fitness came to 0.0149. The figure for A111C A120G A145C C150A C169A is 0.0103; for A111C A120G A145G C150A C169G U176A it is 0.0195. The figure for A111C A120G A145G C150A C169G U176C is 0.0342; for A111C A120G A145G C150A C169G U176G it is 0.00523. As to A111C A120C C150U C169U U176C, the reverse-splicing fitness amounted to 0.0327. As for A111C A120C C150U C169U U176A, the figure is 0.0275; as for A111C A120C C150U C169U U176G, 0.0066. As for A111C A120G A145G C150A C169U, the figure is 0.0326.

With A111C A120G A145G C150A C169G, the reverse-splicing fitness came out at 0.0313.

For A111C A120G A145G C150A C169A, the reverse-splicing fitness was found to be 0.02. With A111C A120G A145G U176C, the reverse-splicing fitness came to 0.0456. As for A111C A120G A145G U176G, the figure is 0.00588. The figure for A111C A120G A145G U176A is 0.0379; for A111C A120C C150U it is 0.362. The figure for A111C A120G A145G C150U C169U U176G is 0.00498; for A111C A120G A145G C150U C169U U176C it is 0.0446. On to A111C A120G A145G C150U C169U U176A, for which the reverse-splicing fitness amounted to 0.0338. As for A111C A120G A145G C169U U176A, the figure is 0.0413; as for A111C A120G A145G C169U U176C, 0.045; as for A111C A120G A145G C169U U176G, 0.00448. Consider A111C A120C C150G C169U U176G, for which the reverse-splicing fitness stood at 0.00523.

A111C A120C C150G C169U U176C: the reverse-splicing fitness turned out to be 0.014. Take A111C A120G A145G C150G C169A U176A: the reverse-splicing fitness came to 0.0128.

For the variant A111C A120G A145G C150G C169A U176C, the reverse-splicing fitness came out at 0.0131.

Regarding A111C A120G A145G C150G C169A U176G, the reverse-splicing fitness is 0.00703. The figure for A111C A120G A145C C169A U176C is 0.0169. For the variant A111C A120G A145C C169A U176G, the reverse-splicing fitness was 0.00362.

Take A111C A120G A145C C169A U176A: the reverse-splicing fitness came out at 0.0154. The figure for A111C A120G A145G C169G U176A is 0.036; for A111C A120G A145G C169G U176C it is 0.0552; for A111C A120G A145G C169G U176G it is 0.00512.

As for A111C A120C C169G, the reverse-splicing fitness is 0.00921. For A111C A120C C169U, the reverse-splicing fitness was determined as 0.183.

Consider A111C A120C C169A, for which the reverse-splicing fitness worked out at 0.0116. The figure for A111C A120G A145C C169G is 0.201.

For the variant A111C A120G A145C C169U, the reverse-splicing fitness worked out at 0.146.

Consider A111C A120G A145C C169A, for which the reverse-splicing fitness is 0.0989. The figure for A111C A120C C150G U176C is 0.0288. The figure for A111C A120C C150G U176A is 0.0144.

For A111C A120C C150G U176G, the reverse-splicing fitness turned out to be 0.00388. For the variant A111C A120G A145C C150A C169U U176G, the reverse-splicing fitness was 0.00392.

A111C A120G A145C C150A C169U U176C: the reverse-splicing fitness came out at 0.00924.

For A111C A120G A145C C150A C169U U176A, the reverse-splicing fitness amounted to 0.0178. In the case of A111C A120G A145C C150A C169A U176C, the reverse-splicing fitness is 0.00698. As to A111C A120G A145C C150A C169A U176G, the reverse-splicing fitness is 0.0054. A111C A120G A145C C150A C169A U176A: the reverse-splicing fitness came out at 0.0112.
